Assays:
MMP-9 = molecular target: T1, MMP-9 (Homo sapiens, UniProt P14780); experiment: MMP-9 bioresponsive degradation assay; format: biochemical; conditions: 100 nM MMP-9, 1 mM substrate, room temperature, 3 hr
T1 construct: purchased Chemicon, Temecula, Calif
Experimental: The hydrolysis of the substrates were done in MMPs activation buffer. […] 100 nM MPP-9 was added in this activating buffer and incubated at 37° C. for 4 hr. to activate enzyme. After activating, the 1 mM substrates were added to be hydrolysis at room temperature for 3 hr.

aureolysin = aureolysin (Staphylococcus aureus, UniProt P81177); conditions: 100 nM aureolysin, 1 mM substrate, 37° C., 3 hr
Chain of aureolysin (P81177 209-509): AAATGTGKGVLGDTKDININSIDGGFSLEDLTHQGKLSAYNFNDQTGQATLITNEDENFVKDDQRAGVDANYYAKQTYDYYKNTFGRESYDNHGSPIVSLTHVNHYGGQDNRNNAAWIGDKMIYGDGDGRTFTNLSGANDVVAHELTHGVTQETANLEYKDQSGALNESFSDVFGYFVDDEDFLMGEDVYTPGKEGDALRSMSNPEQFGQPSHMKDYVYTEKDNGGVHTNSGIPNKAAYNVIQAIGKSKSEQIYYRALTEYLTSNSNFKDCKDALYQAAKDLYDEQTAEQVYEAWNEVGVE
Experimental: The hydrolysis of the substrate was performed in aureolysin activation buffer. The buffer contains 100 mM Tris-HCL, 1 mM CaCL2, pH 7.8, and 1 mM 3,4-dichloroisoumarine. 100 nM aureolysin and 1 mM substrate were added in the buffer, and then incubated at 37° C. for 3 hr.
(§1) All control degradation profiles was conducted as outlined in EXAMPLE 22 through EXAMPLE 26 utilizing the control peptides […] and PRRICV, identified as LAR-7047 and LAR-7048 respectively, as substrates.

V8 proteinase = V8 proteinase (Staphylococcus aureus, UniProt P0C1U8); conditions: 100 nM V8 proteinase, 1 mM substrate, 37° C., 3 hr
Chain of V8 proteinase (P0C1U8 69-336): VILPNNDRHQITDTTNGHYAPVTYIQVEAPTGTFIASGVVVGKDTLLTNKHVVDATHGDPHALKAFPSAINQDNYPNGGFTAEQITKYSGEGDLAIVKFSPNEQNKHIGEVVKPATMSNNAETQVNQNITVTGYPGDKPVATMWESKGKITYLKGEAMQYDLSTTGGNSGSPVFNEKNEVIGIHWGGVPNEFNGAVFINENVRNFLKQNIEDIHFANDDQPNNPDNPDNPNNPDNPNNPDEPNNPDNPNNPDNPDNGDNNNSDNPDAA
Experimental: The hydrolysis of the substrate was performed in V8 proteinase activation buffer. The buffer contains 100 mM Tris-HCL, 1 mM CaCl2, pH 7.8, and 10 mM o-phenanthroline. 100 nM V8 proteinase and 1 mM substrate were added in the buffer, and then incubated at 37° C. for 3 hr.
as §1

T1 sequence (P14780 107-707 limits assumed): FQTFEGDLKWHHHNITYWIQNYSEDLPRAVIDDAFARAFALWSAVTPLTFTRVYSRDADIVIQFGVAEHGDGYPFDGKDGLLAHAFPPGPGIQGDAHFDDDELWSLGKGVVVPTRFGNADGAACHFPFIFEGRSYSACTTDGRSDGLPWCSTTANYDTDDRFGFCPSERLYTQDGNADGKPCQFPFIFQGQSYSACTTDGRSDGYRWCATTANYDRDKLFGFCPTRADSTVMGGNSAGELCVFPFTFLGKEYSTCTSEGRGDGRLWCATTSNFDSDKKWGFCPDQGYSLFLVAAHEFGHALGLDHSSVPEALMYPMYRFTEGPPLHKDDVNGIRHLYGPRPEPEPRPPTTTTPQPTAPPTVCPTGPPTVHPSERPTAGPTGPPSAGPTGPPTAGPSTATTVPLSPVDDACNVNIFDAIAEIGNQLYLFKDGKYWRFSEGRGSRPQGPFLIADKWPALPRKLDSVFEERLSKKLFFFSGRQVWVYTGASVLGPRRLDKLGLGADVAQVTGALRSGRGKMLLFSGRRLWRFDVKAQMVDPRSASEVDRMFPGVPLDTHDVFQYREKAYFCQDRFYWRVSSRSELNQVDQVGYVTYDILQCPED

Substance | Degradation of peptide substrate by MMP-9 (fragment observed) (MMP-9) | Degradation of peptide substrate by aureolysin (aureolysin) | Degradation of peptide substrate by V8 proteinase (V8 proteinase)
Pro-arg-arg-arg-arg-pro-arg-gln-ile-thr-ala (PRRRRPRQITA) [LAR-7009, peptide targeted to MMP-9 (inflammation)] | produced specific fragment pick: 1121.66 corresponding to PRRRRPRQ sequence |  | 
Pro-arg-arg-ile-sys-val (PRRICV) [LAR-7048] | No degradation | No degradation | No degradation
val-phe-phe-arg-arg-gln-thr-ala (VFFRRQTA) [LAR-7047] | No degradation | No degradation | No degradation

From patent US8962697B2, “Bioreponsive polymers” (Interface Biologics Inc., priority 2006, dated 2015)
